The results in this text go back to the DeepSol protein solubility set.

This series in a line: soluble on expression in E. coli; label from the status in PepcDB or PDB records.
Turning to “MSRPTLQVDLLVESFNYKAWSDRRTLDAIARIDAEAFPASLAFALQQLNHMAIVEELFRARLLGEPAPHQQTNSEVVPGYDVLRRRLEDSAAWFAGYVAELPLERRGEWLRFRFADGRDGGMTRQEILFHIVNHGTYHRGAIGHALDLAGAPRPADTYTLYIHSAQPERRE”, the “soluble on expression in E. coli” value is reported as “not soluble”.

Take “EVVVTGMQKMDKRLFTGAATKLDAEGVKLNGMADISRGLEGRAAGVSVQNVSGTFGTAPKIRVRGATSIYGSSKPLWVVDGVIMEDAVEVSADQLSSGDAETLISSAIAGLNADDIESFQILKDGSATSIYGARAMAGVIVVTTKKGK”: the “soluble on expression in E. coli” value was “not soluble”.

Turning to “MRSEAKNQKPTAYPMKGIDDLPLHEIIEPALDITSPQVACVGIGVRAVCNYDCVYCYAGHSDKRGDMSVEQYFDVMEQAAELGVKTIIMTGAGGKSEPGLFKGLLPILERASSLGMSTAMFTNGSQFGDDKVARIHNLSAVELAHKIRELKVSLFIACETLEPDLYSNITKKPIAPFQTGLINLIAAGFIGTPGEPTSVTISSVIMRQNFEELPVLQKFAHNNGWQYICKFPTLVGSALDHPELFFSPEEAAERHSIVAELRDKPETLTVTHSGAEYCLVNQVGMSFDNLGTPLNCLSGCEITSRKDMNLKSMRLADIVLLKKHLAHQGIGNCPKKAVFYDFKQPKLEAAAFHGLS”, the “soluble on expression in E. coli” value is “not soluble”.

Take “MGSDKIHHHHHHMETQNKPTVTDIDRPILVPPGGHKKVLLHSCCAPCSGEVMEAMLASGIDYTIYFYNPNIHPHKEYMLRKEENVRFAEKFGIPFIDKDDDYENDRKEWFAKAKGMEFEPERGIRCTMCFDMRFEKAAQYAHEHGFPVFTSSLGISRWKNMNQINDCGRRAAAPYDDVVYWDFNWRKGGGSARMIEISKRENFYQQEYCGCAYSLRDSNAHRKSQGRIPIKLGVLYYGDESTQYEPAPIRVDK”: the “soluble on expression in E. coli” value was “not soluble”.

On to “MSLSLYQSVRAVANARGGETEWIDWRATAEAAKQARDQGALTLDDAERRAYATDVRDARSRLRTVGGLEFDIPQTIEVQNRHHWIDANIKTFERMLDPIDIATLIDDTNALNGPSGYATRMVNTGSMAAALAFLSGNVLGQYDPQLLSQTTDTIETNENNHELYFVHPNIVDVAAELDVEYPRFRRWIAFHEVAHAAEFGAAPWLRTHIEDRIESGLEALTGGRLDRSAFSDVDIVMTAVEGYAELLMDRAFDKEYADLRAKLDARRGGGGPVAQLFRRLLGLGVKERQYERGAQFFETIADQRGVKAAATVWEDPRYLPDESELDNPQYWIDRVNEGHHHHHH”, for which the “soluble on expression in E. coli” value is listed as “not soluble”.

As to “MFKIQEVRELIKLIDSSNIDEFEYKKDGTTIKMKKRGNEVVAVQAPVAKQAVQPVAPVEVETTVAAAQVEVPKQEEKKAVQNENLHKITSPMVGTFYSSSSSSPDTPPYVSVGDRVSKDSIVCIVEAMKLFNEIDADVDGEIVEILVNNGQLVEYGQPLFLVKA”, the “soluble on expression in E. coli” value was “not soluble”.

For “GPGSMKSPHMARIGNSVYRDICPEDDPLCSNFGFEDYDLSRPTPMMRMSLLYNLHVSGESPSPAIDNMFRLAYRSRHGLVKIYKVMNVSAESKAWVADPKNRKCDAPGSWLCTGQYPPAKEIQEMLARRIDYGQLEDFNRGKRDDAYYRAYMRRIRNQGRG”, the “soluble on expression in E. coli” value is “soluble”.

In the case of “SKARTVAGPVGGSLSVQCPYEKEHRTLNKYWCRPPQIFLCDKIVETKGSAGKRNGRVSIRDSPANLSFTVTLENLTEEDAGTYWCGVDTPWLQDFHDPVVEVEVSVFPAS”, the “soluble on expression in E. coli” value is listed as “soluble”.

With “MGSDKIHHHHHHMAQKNNNVIPMTFDDAFYRKMAKQKFKQREYKRAAEYFEKVLELSPDDLEIQIDYAQCLVQLGIAKKAEHLFYDNIIYNRHLEDSFYELSQLNIEVNEPNKAFLFGINYVIVSDDQDYRDELDQMFDVKYQSEEQIELEAQLFVVQILFQYLFSQGRLKDAKNYVLHQPQEVQDHRVVRNLLAMCYLYLGEYDTAKALYEALLQEDSTDIYALCHYTLLLYNTKENEQYQKYLKILNKVVPMNDDESFKLGIVLSYLKQYRASQQLLYPLYKKGKFLSIQMYNALAYNYYYLGEEDESHYYWDKLKQISKVEIGHAPWVIENSKEVFDQHILPLLQSDDSHYRLYGIFLLDQLNGKEIVMTESIWQVLENLNNYEKLYLTYLVQGLTLNKLDFIHRGLLTLYQNELFVSENDLMVAWINQGELIIAEKVDLTDVEPYIGAFIYLYFKNQPRNVTKKQITTWLGITQYKLNKMIEFLLSI”, the “soluble on expression in E. coli” value was “not soluble”.

“MDRTIYDNYVKILRKELVPALGCTEPIALAYASAKAREVLGEFPEHMTVWCSGNIIKNVKGVKVPNSGGMKGVEAAAVLGLAGGDPSQALEVLEAVTQTDIKRTKELLRESFCDCCLKEGVANLYIEVQVVNGENEATVIIEQEHTNITRIEKNGKIVYAHKKEVSGEEIEVDKSLLNLADILVFAQEVDLNEVRDVLARQIRYNSRIAKEGLEHEWGAQVGRVIAEEFGTTVQWKAVASAAAGSDARMSGCSLPVIINSGSGNQGMTCSLPVIEYGKELKKSEEEIYRALCVSNLVALNQKRYIGSLSAYCGAVCAAAGAGAGITYLCGGNLEQIQNTVVNTIADAGGIVCDGAKPSCAAKIATSLQAAILSHKMAMRGLVFGSGEGLVMDCPEDTIKAVGYVGRAGMKQTDVEILNLMIGKTKIEDIEK”: the “soluble on expression in E. coli” value is recorded as “not soluble”.

Take “MTSDTIRQTLDELLLDKNGGSSNEARAFFLSQIIDQLKLISSQTDAERQLQKLQLKDPNDNIVKATPPPPPPPPPLISILQQAPPPPPPPPPPTLKAPPPPPILGLKTPSKSLKTPTPRPKECPTSFLPKKEKKTKTRTVQWSKINASVVQDDSVWGKLAKASNVDIDFDLLDNFFGIESLAVSGAAEVVKVGILRALGKNYKKISKKIFNPKKHFFFLLKISNSLNFQKSTRKDAHVELLTAKRSQNVAIMLKQFKNIDELIDDVSQNKPVAEIDALQNLFGMLPQSEEEEALRRYTGDISLLSPPSSFFYRLVQIQFYRLRIETQIFLSDFSRLMRELAPNVEILIRTSQEILTSPTLPRLLLIFVNMGNYLNGNNSQGNAFGFTLNSLWKLIDLKGNKQEFSLLHLLVTCEPDLVAHLQEELSTLKDASQISFDEIKISLKTLRDGRCKLEKQLETCSGASFTQFLELIKIDCKFELDEFGANYDKLTELQYQLADYFCENRNTFQLDECLKIFNFLMNRLQQTLKEHVTRETRKLKKEEKKETQTTRECEKTMKKPEKIDLFDALTASNGGPESPRKRAAGILDMRQKLGNVRIRKLRDVTTLESSFTPPPPPPLESPTDSTSSKENESVKPAKTSTNYEMCNDLESYITSLTRKRASHLPKAPPKEEPKLPEVLPEKSKIALKIEKIPEKIDKPPLPQAAPIIPKLPQKSIKAPSTVTTRSKVPPPTAAAAVRIVSVTTTTTPTKTAELRKPGARSPKTTVATVPKVTVVPVSRVPVAPSTPLSRRMSAPVVRKPTMTAEKKREITMKPSVSTSARPSLINTSSHPMVRSPLPKMSVLEKPKPLRITRPTVIPQSPTVTSSARPSGLRQPAKPKWV”: the “soluble on expression in E. coli” value is “not soluble”.

As to “MTGTLAPEAMPLLSVRKLTKLFGNFAACNGIDLDIAPGEIHALLGENGAGKSTLVKMLFGVLSPTEGDIIWQGQPVSVGSPSEARRLGIGMVFQHFSLFEALTVAENIALSLDPKISLKEIAREAEQLSRAYGLPLDPNAHVADLSVGERQRIEIVRALLQNPRLIILDEPTSVLTPQEADKLFETLAKLKAEGRSVLYISHRLEEVQRICDRATVLRHGKVTGACDPRKETPASLARMMVGSDVASVSRATGEALGAPQIEVMGLSVAPRTPFAVALKSISMNVRAGEVLAIAGVAGNGQGELFDALSGEYPVYNNDAIHLRGKPVGRLGINGRRLMGAGFVPEERHGHAAVPGMSLSDNLLLARSRSDRKAFLTGGFLRIVRGSTIKAAARRISETMDVRKSGADPLAGSLSGGNLQKFIVGRELDRQPSVLVVNQPTWGVDAGAASRIRQALVDLAKAGSAVIVISQDLDEIFEVATNIAVISDGMLSEAHPVEEMTLEKIGLLMGGIHTSQSGAAQHAHLEHHHHHH”, the “soluble on expression in E. coli” value was “not soluble”.

Turning to “DVTDIKVKEAEIVSKSVAIREIHHRVKNNLQSVVSLLRIQGRRSTSVEAQKVLNESVSRILAIAATHELLSKQMEDGINLYMVIEAVAYNIERCCNDCPQVAVRMDI”, the “soluble on expression in E. coli” value is “not soluble”.

With “MAHHHHHHMEVVVKSIGTAFTVAVIPVLKDNYSYVIHDKATNTLAAVDVSVDIDPVIDYVRRLGGVDRTTDLRTILSTHKHHDHSGGNISLQKKLNAMGAFRIIGGANEPIPGVTEKVREGDHFSIGELKVDVLDAPCHTSGHVLYKVYHPQKAENGIALFTGDTMFVGGIGAFFEGDAVLMCSALRKVYNLNGACESSACDATDVQKRDNHTYIFPGHEYTVNFLRFSRDALPASHPDVSFVEAQLRRYTESVAGNVPTVPSTLAEEKRQNLFLRTCDEAFVRVMNKGETAVKLMDFLYNTCP”, the “soluble on expression in E. coli” value is “soluble”.

On to “MNNAALRHWKQQQRARLRELRQQVPVTQRMLWSDAITAVLTQGFPFLENQRIGFYWPHQGEYDPIPAMTFLRTRGATLALPEVISKDEPLRFIEWWPEAPMKKDIYGIPFPDNTRGITVDSIIIPLLGFDEQGYRLGYGSGYFDRTLAAMSPRPLAIGVAFEILRLPTIHPQQHDIPMDYIVTEQSILHRTDTGLVPLTAPIVQSETALEHHHHHH”, for which the “soluble on expression in E. coli” value is given as “soluble”.

For the sequence “GSPGISGGGGGILMDVNVGLSRLQSQAGAPVGTKGSNTRLAAKQRETLQAYDYLCRVDEAKKWIEECLGTDLGPTSTFEQSLRNGVVLALLVQKFQPDKLIKIFYSNELQFRHSDNINKFLDFIHGIGLPEIFHFELTDIYEGKNLPKVIYCIHALSYFLSMQDLAPPLIKSDENLSFTDEDVSIIVRRLRQSNVILPNFKAL”, the “soluble on expression in E. coli” value is on record as “soluble”.

For “MGHHHHHHSHMEVVLPLDPAVPAPLCPHGPTLLFVKVTQGKEETRRFYACSACRDRKDCNFFQWEDEKLSGARLAAREAHNRRCQPPLSRTQCVERYLKFIELPLTQRKFCQTCQQLLLPDDWGQHSEHQVLGNVSITQLRRPSQLLYPLENKKTNAQYLFADRSCQFLVDLLSALGFRRVLCVGTPRLHELIKLTASGDKKSNIKSLLLDIDFR”, the “soluble on expression in E. coli” value was “not soluble”.

As for “MATSSHLNWLIIRNNNAFLLKKRDVKKPFSTEPNNLASVSSYRYSGIVHKKTLGVVPAADKKGFTAVLKKGKYAQRPAKNTVRVDFKAGPRRSLKKLKNLLIGSKYRKDLTQAALRRASAVLRSQKPAPVKGKKAEFAKGKKPELEHHHHHH”, the “soluble on expression in E. coli” value is “not soluble”.

Turning to “GTEDTFWKDETDFNLALTSCYTPLKNALNGGYYGTRGVMLRIARADEVDFRNDISDVYTVNRFTNSNTNSLTQGMFYQFYNALYRTNSIMQKLEEKKEQFSTDFQNSVKGECLFIRGFYLFQLAKEFKDAPLRLTASQSPSTFPLAKSSQADIWAQAKEDLKTAASLLPITNKIGKPTQGAAYAALGKIYVYEENWQEAINVLEPLTQNPYTYKLVEDFNWNFDDTHENNAESIFELLIEDVGGTDLWGDGENINSTQSNTRPKEYAAAEVGGWYEANPTQQIMDIFWKEKDKDGNFDYRARCSVAWDYEGCTYYQRPFREVFAQDKWKTYWILKYQNWKTQKDEPAPPKSFINERAIRYADVLLMLAEAYMNKGALDTSIGYINQIRRRANLNDYSGPITKEGVFEDLVHQRAIEFFVEGERFYDLRRWGLLEQTLKTCDDTRYKNYQTGKSDNINKFNYFPIPAKELDTNPLCTPSEGW”, the “soluble on expression in E. coli” value is “soluble”.

As to “YASQSAGKEYYKHIEKIIVDNDVYEKSLEGERTFDINYQGIKINADLIKDGKHELTIVNKKDGDILITFIKKG”, the “soluble on expression in E. coli” value is on record as “not soluble”.
